According to PMC6233222, “Structure and oligomerization of the periplasmic domain of GspL from the type II secretion system of Pseudomonas aeruginosa” (Scientific Reports, 2018):

What was measured:
[1] = target: the molecule itself; assay: SEC-SAXS; late elution peak of GspL^peri, 13.7 mg/ml injected; Bio SEC-3 column, SWING beamline
[2] = target: the molecule itself; assay: SEC-SAXS; early elution peak of GspL^peri, 9.0 mg/ml injected; Bio SEC-3 column, SWING beamline
[3] = target: the molecule itself; assay: SEC-MALLS; early elution peak (EEP) of GspL^peri, one hour after purification and after concentration; Superdex 200 increase in 50 mM TRIS pH 7.5, 100 mM NaCl; tetramer converts irreversibly into dimers
[4] = target: the molecule itself; assay: crystal structure; crystal form 1, space group I4(1)22, 2.5 Å; dimer generated by a crystallographic 2-fold axis; sample from the LEP, sitting drop vapor diffusion at 20 °C
[5] = target: the molecule itself; assay: SEC-MALLS; GspL^fld made by incubation of GspL^peri in crystallization conditions over 48 hours and purified by SEC (absorbance at 220 nm)

B1: GspL^peri, the complete periplasmic segment of general secretory pathway protein L (GspL) from Pseudomonas aeruginosa (domain or fragment)
chain: GDRYAAQSAELYRQLFPEDRKLINLRAQFDQHLADSASSGGEGQLLGLLGQAATVIGGEPTVSVEQLDFSAARGDVALQVRAPGFDVLERLRSRLSESGLAVQLGSASRDGSTVSARLVIGG
notes: membrane proximal domain (MPD), short linker and ferredoxin-like domain (FLD); calculated mass of the construct 13.95 kDa; No step that removes the tag is described; also called XcpY (periplasmic segment); EEP and LEP material; source: E. coli BL21 (DE3), purified (Strep-tactin, SEC on Superdex 75); not shown: Strep-tag, N-terminal, kept
- stoichiometry N [1]: 2
- stoichiometry N [2]: 4
- tetramer to dimer ratio of peak areas, higher concentration [3]: 0.57
- tetramer to dimer ratio of peak areas, lower concentration [3]: 0.7

B2: GspL^fld, the crystallized proteolytic product of GspL^peri (ferredoxin-like domain of GspL) (domain or fragment)
chain: RAQFDQHLADSASSGGEGQLLGLLGQAATVIGGEPTVSVEQLDFSAARGDVALQVRAPGFDVLERLRSRLSESGLAVQLGSASRDGSTVSARLVIGG
notes: GspL (XcpY), P. aeruginosa PAO1; proteolytic product of the construct 261-382 with the new N-terminus at residue 286 (Edman degradation); the C-terminal limit 382 is that of the parent construct; The protease is not identified; the N-terminal Strep-tag is lost with the N-terminal part of the MPD; also called Gsp^fld; crystal form 1; source: E. coli BL21 (DE3), purified GspL^peri (late elution …)
- stoichiometry N [4]: 2

B3: GspL^fld purified from GspL^peri that was incubated in crystallization conditions over 48 hours (domain or fragment)
chain: DSASSGGEGQLLGLLGQAATVIGGEPTVSVEQLDFSAARGDVALQVRAPGFDVLERLRSRLSESGLAVQLGSASRDGSTVSARLVIGG
notes: GspL (XcpY), P. aeruginosa PAO1; mixture of two proteolytic variants of the construct 261-382 that start at residues 286 and 295 (Edman degradation), the shorter one (from 295) predominant; the C-terminal limit 382 is that of the parent construct; The sample is a mixture of 295-382 (predominant) and 286-382; also called GspL^fld (in solution); 10 kDa band; source: E. coli BL21 (DE3), purified …
- stoichiometry N [5]: 2
